This is an account of results in publication PMC8092461 (Nature, 2020).

The assay addresses SARS-CoV-2 RBD (receptor-binding domain of S, residues 331-524) (SARS-CoV-2, UniProt P0DTC2). Kind of assay: SPR.

B1: C105 IgG (antibody, V domains shown)
VH: QVQLVESGGGLIQPGGSLRLSCAASGFTVSSNYMSWVRQAPGKGLEWVSVIYSGGSTYYADSVKGRFTISRDNSKNTLYLQMNSLRAEDTAVYYCARGEGWELPYDYWGQGTLVTVSS
VL: QSALTQPPSASGSPGQSVTISCTGTSSDVGGYKYVSWYQQHPGKAPKLMIYEVSKRPSGVPDRFSGSKSGNTASLTVSGLQAEDEADYYCSSYEGSNNFVVFGGGTKLTVL
Regarding B1, the binding result is reported as “binds”.

B2: C002 IgG (antibody, V domains shown)
VH: EVQLVESGGGVVQPGRSLRLSCAASGFTFSIYGMHWVRQAPGKGLEWVAVISYDGSNKYYADSVKGRFTISRDNSKNTLYLQMNSLRAEDTAVYYCAKEGRPSDIVVVVAFDYWGQGTLVTVSS
VL: not shown
As for B2, the binding result is “binds”.

B3: C119 IgG (antibody, V domains shown)
VH: QVQLVQSGAEVKKPGASVKVSCKASGYTFTSYYMHWVRQAPGQGLEWMGIINPSGGSTSYAQKLQGRVTMTRDTSTSTVYMELSSLRSEDTAVYYCARANHETTMDTYYYYYYMDVWGKGTTVTVSS
VL: QSALTQPASVSGSPGQSITISCTGTSSDVGGYKYVSWYQRHPGKAPKLMIYDVSNRPSGVSNRFSGSKSGNTASLTISGLQAEDEADYYCSSYTSSSTSVVFGGGTQLTVL
B3: the binding result is reported as “binds”.

B4: C110 IgG (antibody, V domains shown)
VH: QVQLQQSGAEVKKPGESLKISCKGSGYSFTSYWIGWVRQMPGKGLEWMGIIYPGDSDTRYSPSFQGQVTISADKSISTAYMQWSSLKASDTAMYYCARSFRDDPRIAVAGPADAFDIWGQGTMVTVSS
VL: DIQMTQSPSTLSASVGDRVTITCRASQSISYWLAWYQQKPGKAPKLLIYQASSLESGVPSRFSGSESGTEFTLTISSLQPDDFATYYCQQYNSYPYTFGQGTKLEIK
Consider B4, for which the binding result is “binds”.

B5: C104 IgG (antibody, V domains shown)
VH: QVQLQQWGAGLLKPSETLSLSCAVYGGSLSGYYWSWIRQPPGKGLEWIGEINHFGSTGYNPSLKSRVTISVDTSKSQFSVKLSSVTAADTAVYYCARKPLLYSNLSPGAFDIWGQGTMVTVSS
VL: EIVLTQSPGTVSLSPGERATLSCWASQSVSASYLAWYQQKPGQAPRLLIYGASSRATGIPDRFSGSGSGTDFTLTISRLEPEDFAVYYCQQYGTTPRTFGGGTKVEIK
In the case of B5, the binding result is “binds”.

B6: C121 IgG (antibody, V domains shown)
VH: not shown
VL: QSALTQPASVSGSPGQSITISCTGTSSDVGSYNLVSWYQQHPGKAPKLMIYEGSKRPSGVSNRFSGSKSGNTASLTISGLQAEDEADYYCCSYAGSSTLVFGGGTKLTVL
As for B6, the binding result is given as “binds”.
